Reference: patent US20200392225A1 (Novartis, published 2020)

T1: human NPR1 expressed on CHO-K1 cells in the presence of ANP (human, UniProt P01160 124-151)
T1 construct: also called hNPR1 CHO K1 + 100 nM ANP
T1 sequence: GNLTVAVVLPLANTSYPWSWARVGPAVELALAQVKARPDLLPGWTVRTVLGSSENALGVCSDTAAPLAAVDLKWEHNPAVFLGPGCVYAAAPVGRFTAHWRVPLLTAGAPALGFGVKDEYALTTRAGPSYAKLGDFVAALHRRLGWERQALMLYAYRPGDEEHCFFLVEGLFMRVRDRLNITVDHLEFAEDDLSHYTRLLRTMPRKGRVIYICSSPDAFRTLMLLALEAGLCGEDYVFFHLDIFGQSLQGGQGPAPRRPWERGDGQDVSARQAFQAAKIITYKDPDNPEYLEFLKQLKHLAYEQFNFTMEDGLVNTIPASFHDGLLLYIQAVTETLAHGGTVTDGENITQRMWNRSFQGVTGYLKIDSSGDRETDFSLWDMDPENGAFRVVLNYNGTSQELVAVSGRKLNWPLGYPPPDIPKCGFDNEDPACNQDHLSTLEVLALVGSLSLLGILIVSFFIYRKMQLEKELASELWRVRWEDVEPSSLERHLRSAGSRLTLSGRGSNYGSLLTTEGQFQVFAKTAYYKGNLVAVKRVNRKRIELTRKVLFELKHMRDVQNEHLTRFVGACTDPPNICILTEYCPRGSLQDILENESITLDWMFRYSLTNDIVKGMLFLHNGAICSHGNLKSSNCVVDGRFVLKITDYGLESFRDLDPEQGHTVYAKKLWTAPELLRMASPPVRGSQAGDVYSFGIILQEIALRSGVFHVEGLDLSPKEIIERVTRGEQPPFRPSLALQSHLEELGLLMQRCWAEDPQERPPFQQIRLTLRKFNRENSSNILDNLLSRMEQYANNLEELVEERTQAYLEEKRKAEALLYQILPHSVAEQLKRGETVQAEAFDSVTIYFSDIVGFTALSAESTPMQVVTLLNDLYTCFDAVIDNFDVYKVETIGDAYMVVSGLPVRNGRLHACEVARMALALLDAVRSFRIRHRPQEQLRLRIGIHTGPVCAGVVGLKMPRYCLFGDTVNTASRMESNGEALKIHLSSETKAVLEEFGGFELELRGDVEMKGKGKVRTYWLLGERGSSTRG
T1 sequence (peptide): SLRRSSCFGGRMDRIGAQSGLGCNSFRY

T2: human NPR1-ANP complex (human, UniProt P01160 124-151, limits assumed)
T2 construct: Receptor antigen measured in the presence of ANP; also called hNPR1 + ANP; hNPR1-ANP-complex
T2 sequence: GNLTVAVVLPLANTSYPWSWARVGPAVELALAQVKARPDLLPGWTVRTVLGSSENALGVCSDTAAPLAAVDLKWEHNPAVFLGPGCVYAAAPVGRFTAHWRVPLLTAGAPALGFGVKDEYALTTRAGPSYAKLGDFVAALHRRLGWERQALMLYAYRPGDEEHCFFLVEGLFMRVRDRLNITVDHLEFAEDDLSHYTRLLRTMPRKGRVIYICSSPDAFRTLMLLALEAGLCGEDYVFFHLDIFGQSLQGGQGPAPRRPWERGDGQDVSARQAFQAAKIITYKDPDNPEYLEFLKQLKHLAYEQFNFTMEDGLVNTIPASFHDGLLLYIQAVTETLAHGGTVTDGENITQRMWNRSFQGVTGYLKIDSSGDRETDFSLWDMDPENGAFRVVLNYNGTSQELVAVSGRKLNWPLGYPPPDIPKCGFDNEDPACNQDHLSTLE
T2 sequence (peptide): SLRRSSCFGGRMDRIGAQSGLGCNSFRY

T3: constitutively active human NPR1 mutant (W74R), recombinant antigen (human, UniProt P16066 33-473)
T3 construct: also called W74R hNPR1
T3 sequence: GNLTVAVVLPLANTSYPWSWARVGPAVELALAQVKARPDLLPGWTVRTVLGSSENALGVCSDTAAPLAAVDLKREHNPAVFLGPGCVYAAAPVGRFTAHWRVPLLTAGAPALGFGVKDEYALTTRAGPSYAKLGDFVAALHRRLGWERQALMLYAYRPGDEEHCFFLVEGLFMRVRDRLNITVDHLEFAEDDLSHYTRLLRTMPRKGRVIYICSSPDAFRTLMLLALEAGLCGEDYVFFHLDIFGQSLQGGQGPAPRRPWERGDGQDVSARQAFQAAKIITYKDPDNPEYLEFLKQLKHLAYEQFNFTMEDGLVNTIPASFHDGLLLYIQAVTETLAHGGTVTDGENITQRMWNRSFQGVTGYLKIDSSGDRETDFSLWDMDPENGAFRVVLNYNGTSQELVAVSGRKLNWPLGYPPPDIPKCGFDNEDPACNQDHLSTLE

T4: human NPR1 expressed on CHO-K1 cells (human, UniProt P16066 33-1061)
T4 construct: also called hNPR1 CHO K1; human NPR1 expressing CHO-K1 cells
T4 sequence: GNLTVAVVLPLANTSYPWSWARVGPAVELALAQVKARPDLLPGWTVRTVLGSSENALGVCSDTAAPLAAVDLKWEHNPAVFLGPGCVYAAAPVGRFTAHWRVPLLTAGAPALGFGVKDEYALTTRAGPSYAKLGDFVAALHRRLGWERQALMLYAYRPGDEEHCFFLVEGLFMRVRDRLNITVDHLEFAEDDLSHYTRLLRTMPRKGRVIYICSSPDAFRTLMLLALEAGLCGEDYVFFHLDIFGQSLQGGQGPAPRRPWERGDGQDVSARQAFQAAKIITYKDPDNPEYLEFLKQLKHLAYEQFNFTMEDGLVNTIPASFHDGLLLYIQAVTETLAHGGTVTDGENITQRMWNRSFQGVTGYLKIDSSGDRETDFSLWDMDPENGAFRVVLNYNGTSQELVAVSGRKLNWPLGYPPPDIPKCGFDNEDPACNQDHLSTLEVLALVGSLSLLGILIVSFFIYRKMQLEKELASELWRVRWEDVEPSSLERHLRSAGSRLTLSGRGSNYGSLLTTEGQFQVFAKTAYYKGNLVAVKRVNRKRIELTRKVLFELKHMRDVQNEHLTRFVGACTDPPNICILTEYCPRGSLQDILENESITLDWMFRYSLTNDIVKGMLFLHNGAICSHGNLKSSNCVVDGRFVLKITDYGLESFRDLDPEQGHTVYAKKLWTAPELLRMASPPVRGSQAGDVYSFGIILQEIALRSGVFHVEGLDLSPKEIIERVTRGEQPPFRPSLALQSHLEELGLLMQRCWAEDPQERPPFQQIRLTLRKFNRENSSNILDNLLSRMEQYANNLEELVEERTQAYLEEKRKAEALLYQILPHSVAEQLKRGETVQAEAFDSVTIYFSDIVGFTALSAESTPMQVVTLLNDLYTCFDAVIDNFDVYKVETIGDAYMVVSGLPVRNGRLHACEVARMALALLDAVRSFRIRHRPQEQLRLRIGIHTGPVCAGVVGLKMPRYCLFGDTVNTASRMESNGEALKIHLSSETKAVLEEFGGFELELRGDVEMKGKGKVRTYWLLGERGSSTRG

T5: rat NPR1, recombinant antigen (rat, UniProt P18910 29-469)
T5 construct: NCBI NP_036745.1 printed; also called rNPR1
T5 sequence: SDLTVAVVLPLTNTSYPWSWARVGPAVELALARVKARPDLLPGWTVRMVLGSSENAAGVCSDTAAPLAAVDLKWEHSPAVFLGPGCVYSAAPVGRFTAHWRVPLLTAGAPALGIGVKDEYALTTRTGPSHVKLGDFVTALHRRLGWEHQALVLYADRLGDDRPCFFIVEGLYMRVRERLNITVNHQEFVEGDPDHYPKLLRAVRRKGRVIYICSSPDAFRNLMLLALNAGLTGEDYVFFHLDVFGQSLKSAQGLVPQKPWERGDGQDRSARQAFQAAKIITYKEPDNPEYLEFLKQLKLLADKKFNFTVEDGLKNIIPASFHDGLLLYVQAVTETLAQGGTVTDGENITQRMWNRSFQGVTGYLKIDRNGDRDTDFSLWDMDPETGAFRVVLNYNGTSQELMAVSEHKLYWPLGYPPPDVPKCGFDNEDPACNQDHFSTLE

T6: human NPR1 (Natriuretic Peptide Receptor 1), recombinant antigen (human, UniProt P16066 33-473)
T6 construct: also called hNPR1; NPR1-hFc
T6 sequence: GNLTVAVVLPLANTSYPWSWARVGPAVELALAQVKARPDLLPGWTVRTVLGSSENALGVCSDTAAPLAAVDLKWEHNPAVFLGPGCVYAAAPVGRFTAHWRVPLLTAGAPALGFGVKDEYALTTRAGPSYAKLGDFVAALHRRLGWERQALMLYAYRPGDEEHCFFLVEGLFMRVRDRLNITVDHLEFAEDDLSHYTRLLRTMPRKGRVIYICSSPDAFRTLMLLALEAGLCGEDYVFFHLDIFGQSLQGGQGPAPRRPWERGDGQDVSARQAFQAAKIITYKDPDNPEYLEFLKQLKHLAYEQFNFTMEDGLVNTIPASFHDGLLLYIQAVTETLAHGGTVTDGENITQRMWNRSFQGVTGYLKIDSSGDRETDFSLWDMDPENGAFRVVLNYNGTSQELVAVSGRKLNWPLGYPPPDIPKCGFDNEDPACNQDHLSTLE

B1: XX12 IgG (antibody, V domains shown)
VH: QVQLLESGGGLVQPGGSLRLSCAASGFTFSSYWMNWVRQAPGKGLEWVSAISSDGSYTYYADSVKGRFTISRDNSKNTLYLQMNSLRAEDTAVYYCARDRYSMIYSYGAGAFDYWGQGTLVTVSS
VL: DIQMTQSPSSLSASVGDRVTITCRASQGISSYLAWYQQKPGKAPKLLIYTASTLQSGVPSRFSGSGSGTDFTLTISSLQPEDFATYYCQQIWMAPRTFGQGTKVEIKR
notes: also called XX12_LALA
B2: YY05 IgG (YY05_LALA) (antibody, V domains shown)
VH: EVQLVQSGAEVKKPGESLKISCKGSGYSFTSYWISWVRQMPGKGLEWMGIIYPGTSYTRYSPSFQGQVTISADKSISTAYLQWSSLKASDTAMYYCARGAVAGQLGFDHWGQGTLVTVSS
VL: QSVLTQPPSVSGAPGQRVTISCTGSSSNIGAGYDVHWYQQLPGTAPKLLIYGNSNRPSGVPDRFSGSKSGTSASLAITGLQAEDEADYYCQSYYTSSHGPVFGGGTKLTVLG
B3: YY06 IgG (YY06_LALA) (antibody, V domains shown)
VH: EVQLLESGGGLVQPGGSLRLSCAASGFTFSSYAISWVRQAPGKGLEWVSAISGSGGSTYYAESVKGRFTISRDNSKNTLYLQMNSLRAEDTAVYYCARPYLGDRRSYGFDHWGQGTLVTVSS
VL: QSALTQPASVSGSPGQSITISCTGTSSDVGSYNLVSWYQQHPGKAPKLMIYEGSKRPSGVSNRFSGSKSGNTASLTISGLQAEDEADYYCSSYGFHIVVVVFGGGTKLTVLG

Experiments:
[1] = biological target: T1, human NPR1 expressed on CHO-K1 cells in …; experiment: flow cytometry, hNPR1 expressing CHO-K1 cells with saturating ANP [cont.]
human NPR1-ANP complex [2] = biological target: T2, human NPR1-ANP complex; experiment: FRET assay on hNPR1, competitor Cy5-labeled ANP (half-maximal rise of the ANP signal) [cont.]
[3] = biological target: T3, constitutively active human NPR1 mutant …; experiment: ELISA, IgG titrated on the antigen without ANP [cont.]
rat NPR1-ANP complex = biological target: T7, rat NPR1-ANP complex (rat); experiment: ELISA, 1 uM IgG, +100 nM ANP
T7 construct: Rat receptor antigen measured in the presence of ANP; also called rNPR1 + ANP; rNPR1-ANP-complex

human NPR1-ANP complex [4] = biological target: T2, human NPR1-ANP complex; experiment: ELISA, 1 uM IgG, +100 nM ANP
[5] = biological target: T1, human NPR1 expressed on CHO-K1 cells in …; experiment: flow cytometry, 1 uM IgG, +100 nM ANP
[6] = biological target: T4, human NPR1 expressed on CHO-K1 cells; experiment: flow cytometry, 1 uM IgG
[7] = biological target: T3, constitutively active human NPR1 mutant …; experiment: ELISA, 1 uM IgG
[8] = biological target: T5, rat NPR1, recombinant antigen; experiment: ELISA, 1 uM IgG
[9] = biological target: T6, human NPR1 (Natriuretic Peptide …); experiment: ELISA, 1 uM IgG
[10] = biological target: T4, human NPR1 expressed on CHO-K1 cells; experiment: cell-based or functional assay
human NPR1-ANP complex [11] = biological target: T2, human NPR1-ANP complex; experiment: ELISA, IgG titrated on the antigen with 250 fold molar excess of ANP [cont.]
[12] = biological target: T6, human NPR1 (Natriuretic Peptide …); experiment: FRET assay on hNPR1, competitor Cy5-labeled ANP [cont.]
[13] = biological target: T6, human NPR1 (Natriuretic Peptide …); experiment: ELISA, IgG titrated on the antigen without ANP [cont.]

| Binder | EC50 (read off the curve) [1] | EC50 (read off the curve) (human NPR1-ANP complex [2]) | EC50 (read off the curve) [3] | ELISA IgG binding at 1 uM IgG (unit not given) (rat NPR1-ANP complex) | ELISA IgG binding at 1 uM IgG (unit not given) (human NPR1-ANP complex [4]) | flow cytometry S/BG [5] | flow cytometry S/BG [6] | ELISA IgG binding at 1 uM IgG (unit not given) [7] | ELISA IgG binding at 1 uM IgG (unit not given) [8] | ELISA IgG binding at 1 uM IgG (unit not given) [9] | cGMP conc [nM] at 1 uM IgG, +0.075 nM ANP [10] | cGMP conc [nM] at 1 uM IgG, without ANP [10] | EC50 (read off the curve) (human NPR1-ANP complex [11]) | IC50 (read off the curve) [12] | EC50 (read off the curve) [13] |
| --- | --- | --- | --- | --- | --- | --- | --- | --- | --- | --- | --- | --- | --- | --- | --- |
| B1 | ~0.9 nM | ~0.5 nM |  |  |  |  |  |  |  |  |  |  |  |  |  |
| B2 |  |  | ~1 nM | 16 | 32 | 5 S/BG | 15 S/BG | 69 | 11 | 81 | 15 nM | 13 nM |  |  |  |
| B3 |  |  | ~5 nM | 4 | 102 | 18 S/BG | 26 S/BG | 83 |  | 91 | 15 nM | 12 nM | ~8 nM | ~5 nM | ~8 nM |
